Data as given in patent publication US20040180342, “Multimers of S. solfataricus single-stranded DNA-binding protein and methods of use thereof” (REGENTS OF THE UNIVERSITY OF CALIFORNIA, published 2004).

Experiments:
[1] = target: T1, SsoSSB (S. solfataricus SSB, SSO2364) (Sulfolobus solfataricus, UniProt Q97W73 SEQ:1-148); test: competition; conditions: linear pUC19 at 100-fold molar (nucleotide) excess did not alter shift of 63-mer; 75 C
T1 sequence: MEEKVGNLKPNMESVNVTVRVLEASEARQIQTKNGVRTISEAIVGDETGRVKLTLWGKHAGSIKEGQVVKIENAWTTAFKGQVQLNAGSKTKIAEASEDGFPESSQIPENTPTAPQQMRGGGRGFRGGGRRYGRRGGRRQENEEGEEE

[2] = target: T1, SsoSSB (S. solfataricus SSB, SSO2364); test: EMSA; 10 uM nucleotides, constant mobility reached at 2 uM protein; saturation about 1 SSB per 5 nt; non-cooperative; 75 C, 30 mM Tris OAc pH 7.5, 10 mM MgOAc2, 5 mM; conditions: tags: untagged, expressed from pET21a in E. coli, heat treated at 80 C; chain copies: 4 (tetramer main form in solution; dimer and monomer also present); label: 5'-32P (T4 polynucleotide kinase end label)
Protocol: To determine the occluded binding site size of the protein and to evaluate the activity of the SsoSSB protein, we performed acrylamide gel mobility-shift assays with a radioactively labeled single-stranded oligonucleotide that was 63 nucleotides in length (FIG. 5). When a fixed quantity of radiolabeled oligonucleotide was incubated with increasing quantities of protein, a band of reduced mobility was observed. The apparent mobility further decreased upon addition of more protein, finally achieving a constant mobility after the addition of 2 μM protein. The absence of discrete species implied rapid equilibration between bound and free forms of the complexes, and consistent with this possibility, more discrete species were visualized when electrophoresis was performed more rapidly (at high voltage). […] The M. jannaschii RPA protein has a site size of 15 to 20 nucleotides (Kelly, T. J. et al., Proc Natl Acad Sci USA 95:14634-14639 (1998)) whereas the site size of E. coli SSB protein, depending on solution conditions, varies from 8 to 16 nucleotides per monomer. The apparent site size of SsoSSB protein is similar to the 7 nucleotide site size observed for phage T4 SSB protein, gp32. […] The observed band-retardation pattern is likely the result of a combination of this non-cooperative binding and rapid equilibration of protein-DNA complexes during electrophoresis.

Row | Molecule | fold lower affinity than ssDNA (competition) (fold lower affinity than ssDNA) [1] | binding result [2]
1 | linearized pUC19 | > 100 | 
2 | 63-mer oligonucleotide (ssDNA) DNA: ACAGCACCAATGAAATCTATTAAGCTCCTCATCGTCCGCAAAAATATCGTCACCTCAAAAGGA |  | binds
